Assay results: patent US20250164508A1, “G-PROTEIN COUPLED RECEPTOR ASSAY” (The Regents of the University of Michigan, priority 2022, published 2025)
Square brackets hold non-standard residues; d marks the D form. Ends that are not written are not given here. Cha = N[C@@H](CC1CCCCC1)C(=O)O

Tests used:
[1] = target: μ-opioid receptor (μ-OR) (Homo sapiens, UniProt P35372); assay: μ-OR IGNiTR assay with Gi fusion peptide
[2] = target: T1, MOR (Homo sapiens, UniProt P35372); type: biochemical; details: peptidomimetic 35 uM and 28 uM
T1 construct: made in house; host or cells: HEK293 adhesion cells (general method)

[3] = target: β2-adrenergic Receptor (β2AR) (Homo sapiens, UniProt P07550); assay: β2AR IGNiTR assay (β2AR-LgBiT cell lysate with SmBiT conformation-specific binder); details: SmBiT-Gs peptidomimetic fusion peptides with β2AR-LgBiT
[4] = target: Melanocortin-4 Receptor (MC4R) (Homo sapiens, UniProt P32245); assay: MC4R IGNiTR assay; details: Gs fusion peptide 2 μM; drug 10 μM
[5] = target: MOR-SmBit (Mu-opioid receptor with SmBit attached to the C-terminus) (UniProt P35372); assay: in-solution split NANOLUC complementation, separately expressed components, with and without loperamide
[6] = target: MOR-SmBit (Mu-opioid receptor with SmBit attached to the C-terminus) (UniProt P35372); assay: in-solution split NANOLUC complementation, co-expressed components, with and without loperamide
[7] = target: B2AR-SmBit (beta-2-adrenergic receptor fused to the SmBit fragment of split NANOLUC) (UniProt P07550); assay: in-solution split NANOLUC complementation, detergent-extracted B2AR mixed with nanobody lysate, with and without isoproterenol

Sequence of MOR-SmBit (Mu-opioid receptor with SmBit attached to the C-terminus) (P35372 1-400, tags or fused parts left off): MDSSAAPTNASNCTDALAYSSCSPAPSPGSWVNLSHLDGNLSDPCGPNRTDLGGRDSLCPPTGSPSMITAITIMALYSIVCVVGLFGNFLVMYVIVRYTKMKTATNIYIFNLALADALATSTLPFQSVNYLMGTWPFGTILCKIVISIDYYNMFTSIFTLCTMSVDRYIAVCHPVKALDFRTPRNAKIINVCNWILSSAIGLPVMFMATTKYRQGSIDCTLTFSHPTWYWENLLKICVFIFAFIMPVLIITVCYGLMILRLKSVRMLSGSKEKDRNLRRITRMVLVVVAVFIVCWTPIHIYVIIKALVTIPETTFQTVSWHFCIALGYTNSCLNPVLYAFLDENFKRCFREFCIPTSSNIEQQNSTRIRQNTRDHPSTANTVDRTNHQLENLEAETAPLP
Sequence of μ-opioid receptor (μ-OR) (P35372 whole entry, the tested form may be a part): as the sequence (P35372 1-400, tags or fused parts left off) above
T1 sequence (P35372 whole entry): as the sequence (P35372 1-400, tags or fused parts left off) above
Sequence of Melanocortin-4 Receptor (MC4R) (P32245 whole entry, species assumed, the tested form may be a part): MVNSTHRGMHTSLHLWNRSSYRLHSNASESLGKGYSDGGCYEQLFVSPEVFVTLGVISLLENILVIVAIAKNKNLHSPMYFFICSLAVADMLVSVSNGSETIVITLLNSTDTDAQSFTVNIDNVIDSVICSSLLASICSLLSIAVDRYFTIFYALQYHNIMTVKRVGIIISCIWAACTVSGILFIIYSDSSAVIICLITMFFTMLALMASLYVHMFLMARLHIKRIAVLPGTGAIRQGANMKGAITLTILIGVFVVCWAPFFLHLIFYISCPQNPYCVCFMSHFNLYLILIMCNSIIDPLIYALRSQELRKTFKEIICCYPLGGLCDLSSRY

Question: With “VTGYRLFEEILGSKKKFDAVTDIIIKNNLKDCG[Cha]F [Gi fusion peptide]” as the molecule, how does the DDR ([1]; 2 μM peptide, 0.5× μ-OR-LgBiT lysate, around 10 minutes) read?
Answer: Its DDR is about 4.

Question: What about the DDR significance ([1]; Gi fusion peptide with μ-OR) of the same molecule?
Answer: The DDR significance was “significant DDR”.

Question: What about the “binding to the MOR protein” value [2] of the same molecule?
Answer: Its value is “successful binding”.

Question: With “VTGYRLFEEILGSKKKFN-C-SRD-C-IQRMHLRQYE-{Cha}-L [peptide 1]” as the molecule, how does the “agonist-dependent DDR” value [3] read?
Answer: Its value is “did not demonstrate agonist-dependence”.

Question: Which results are given for “VTGYRLFEEILGSFNDCRDIIQRMHLRQYE-{Cha}-L (VTGYRLFEEILGSFNDCRDIIQRMHLRQYE[Cha]L) [Gs fusion peptide]”?
Answer: agonist-dependent DDR [3]: significant DDR; agonist-dependent DDR ([3]; listed as peptide 2): showed agonist-dependent DDR; DDR significance [4]: significant DDRs

Question: For “Nb39-LgBit (Nb39 attached to LgBit on the C-terminus) (VHH)”, which fold signal change between (+Lop) and (-Lop) [5] is on record?
Answer: The fold signal change between (+Lop) and (-Lop) was 3.2 fold.

Question: What about the fold signal change between (+Lop) and (-Lop) [6] of the same molecule?
Answer: Its fold signal change between (+Lop) and (-Lop) is 3.8 fold.

B1: Nb80-LgBit (Nanobody 80 fused to LgBit) (VHH, from another filing)
VHH: QVQLQESGGGLVQAGGSLRLSCAASGSIFSINTMGWYRQAPGKQRELVAAIHSGGSTNYANSVKGRFTISRDNAANTVYLQMNSLKPEDTAVYYCNVKDYGAVLYEYDYWGQGTQVTVSS
Question: B1 was tested. Which fold signal change between (+Iso) and (-Iso) [7] did it give?
Answer: The fold signal change between (+Iso) and (-Iso) was 1.9 fold.
